From PMC6458997

Tests used:
AimR (SPbeta) [1] = molecular target: T1, AimR (SPbeta) (Bacillus subtilis phage SPbeta (cloned …, UniProt O31927 1-386)); test: EMSA; apo; EMSA: 50 mM HEPES pH 7.5, 5 mM MgCl2, 75 mM NaCl, 0.5 mM EDTA; 0.4 uM DNA, 4 uM AimR; 10 min at room temperature; 8% PAGE in TBE at 4 C or agarose in TAE at room temperature; conditions: protein: recombinant; tags: N-terminal 6xHis-TEV, cleaved; chain copies: 2
T1 sequence: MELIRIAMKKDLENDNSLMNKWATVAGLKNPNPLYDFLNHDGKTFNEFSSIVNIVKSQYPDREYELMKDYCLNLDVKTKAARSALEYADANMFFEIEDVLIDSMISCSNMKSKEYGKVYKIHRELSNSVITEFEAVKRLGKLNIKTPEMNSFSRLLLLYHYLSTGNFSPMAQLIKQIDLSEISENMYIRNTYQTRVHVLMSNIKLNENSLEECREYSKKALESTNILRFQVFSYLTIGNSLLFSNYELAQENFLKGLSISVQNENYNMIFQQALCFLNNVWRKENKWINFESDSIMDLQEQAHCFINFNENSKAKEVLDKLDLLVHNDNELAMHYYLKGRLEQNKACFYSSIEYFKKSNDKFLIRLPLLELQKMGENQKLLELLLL

AimR (phi3T) = molecular target: T2, AimR (phi3T) (Bacillus phage phi3T, UniProt P0DOE3 1-378); test: EMSA; EMSA: 50 mM HEPES pH 7.5, 5 mM MgCl2, 75 mM NaCl, 0.5 mM EDTA; 0.4 uM DNA, 4 uM AimR; 10 min at room temperature; 8% PAGE in TBE at 4 C or agarose in TAE at room temperature; conditions: protein: recombinant; tags: N-terminal 6xHis; same purification protocol as SPbeta AimR
T2 sequence: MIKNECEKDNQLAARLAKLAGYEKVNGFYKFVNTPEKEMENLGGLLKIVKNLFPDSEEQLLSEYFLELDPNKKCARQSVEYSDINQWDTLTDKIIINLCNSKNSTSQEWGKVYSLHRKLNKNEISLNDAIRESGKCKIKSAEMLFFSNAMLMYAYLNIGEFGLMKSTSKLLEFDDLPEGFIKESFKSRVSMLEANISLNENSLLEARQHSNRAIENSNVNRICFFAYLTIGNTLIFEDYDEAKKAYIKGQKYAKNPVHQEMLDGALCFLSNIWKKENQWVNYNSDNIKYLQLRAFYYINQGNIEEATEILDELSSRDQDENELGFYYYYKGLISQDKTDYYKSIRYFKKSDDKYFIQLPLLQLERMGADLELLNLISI

AimR (SPbeta) [2] = molecular target: T1, AimR (SPbeta); test: X-ray crystallography; 2.2 A; 200 mM MgCl2, pH 7.5; AimR:DNA 2:1; EMSA: 50 mM HEPES pH 7.5, 5 mM MgCl2, 75 mM NaCl, 0.5 mM EDTA; 0.4 uM DNA, 4 uM AimR; 10 min at room temperature; 8% PAGE in TBE at 4 C or agarose in TAE at room temperature; conditions: protein: recombinant; tags: N-terminal 6xHis-TEV, cleaved; chain copies: 2

B1: SPbeta operator WT 45 bp (dsDNA)
DNA 1: GTTGATCACTAGATGTTATTAAAACCTAATATTTAAGTGATGGCC
DNA 2: GGCCATCACTTAAATATTAGGTTTTAATAACATCTAGTGATCAAC
- binding result (AimR (SPbeta) [1]): binds

B2: phi3T operator 37 bp (dsDNA)
DNA 1: ATGTTCCAGAAATTCAAAAATCAAAAAATAAGAACAT
DNA 2: ATGTTCTTATTTTTTGATTTTTGAATTTCTGGAACAT
- binding result (AimR (phi3T)): binds

B3: crystal operator 43 bp (dsDNA)
DNA 1: TTGATCACTAGATGTTATTAAAACCTAATATTTAAGTGATGGC
DNA 2: GCCATCACTTAAATATTAGGTTTTAATAACATCTAGTGATCAA
- binding result (AimR (SPbeta) [2]): binds
